Entries after “also recorded” stand apart in the source; their conditions may differ.
B1: pFF-EC: Elastin-COMPcc diblock protein polymer with phenylalanine residues replaced by p-fluorophenylalanine (SEQ ID NO: 15) (protein)
chain: MRGSHHHHHHGSKPIAASAVPGVGVPGVGVPGFGVPGVGVPGVGVPGVGVPGVGVPGFGVPGVGVPGVGVPGVGVPGVGVPGFGVPGVGVPGVGVPGVGVPGVGVPGFGVPGVGVPGVGVPGVGVPGVGVPGFGVPGVGVPGVGVPLEGSELAATATATATATATAACGDLAPQMLRELQETNAALQDVRELLRQQVKEITFLKNTVMESDASGLQAATATATATATATAVDLQPS
modifications: Phe replaced by p-fluorophenylalanine
B2: wt-EC: non-fluorinated Elastin-COMPcc block polymer (SEQ ID NO: 15) (protein)
chain: B1 chain
B3: pFF-CE: COMPcc-Elastin diblock protein polymer with phenylalanine residues replaced by p-fluorophenylalanine (SEQ ID NO: 23) (protein)
chain: MRGSHHHHHHGSACELAATATATATATATAACGDLAPQMLRELQETNAALQDVRELLRQQVKEITFLKNTVMESDASGLQAATATATATATATAVDKPIAASAVPGVGVPGVGVPGFGVPGVGVPGVGVPGVGVPGVGVPGFGVPGVGVPGVGVPGVGVPGVGVPGFGVPGVGVPGVGVPGVGVPGVGVPGFGVPGVGVPGVGVPGVGVPGVGVPGFGVPGVGVPGVGVPLEGSGTGAKLN
modifications: Phe replaced by p-fluorophenylalanine
B4: pFF-ECE: Elastin-COMPcc-Elastin triblock protein polymer with phenylalanine residues replaced by p-fluorophenylalanine (SEQ ID NO: 17) (protein)
chain: MRGSHHHHHHGSKPIAASAVPGVGVPGVGVPGFGVPGVGVPGVGVPGVGVPGVGVPGFGVPGVGVPGVGVPGVGVPGVGVPGFGVPGVGVPGVGVPGVGVPGVGVPGFGVPGVGVPGVGVPGVGVPGVGVPGFGVPGVGVPGVGVPLEGSELAATATATATATATAACGDLAPQMLRELQETNAALQDVRELLRQQVKEITFLKNTVMESDASGLQAATATATATATATAVDKPIAASAVPGVGVPGVGVPGFGVPGVGVPGVGVPGVGVPGVGVPGFGVPGVGVPGVGVPGVGVPGVGVPGFGVPGVGVPGVGVPGVGVPGVGVPGFGVPGVGVPGVGVPGVGVPGVGVPGFGVPGVGVPGVGVPLEGSGTGAKLN
modifications: Phe replaced by p-fluorophenylalanine
B5: wt-ECE: non-fluorinated Elastin-COMPcc-Elastin block polymer (SEQ ID NO: 17) (protein)
chain: B4 chain
B6: wt-CE: non-fluorinated COMPcc-Elastin block polymer (SEQ ID NO: 16) (protein)
chain: MRGSHHHHHHGSACELAATATATATATATAACGDLAPQMLRELQETNAALQDVRELLRQQVKEITFLKNTVMESDASGLQAATATATATATATAVDKPIAASAVPGVGVPGVGVPGFGVPGVGVPGVGVPGVGVPGVGVPGFGVPGVGVPGVGVPGVGVPGVGVPGFGVPGVGVPGVGVPGVGVPGVGVPGFGVPGVGVPGVGVPGVGVPGVGVPGFGVPGVGVPGVGVPLEGSGTGAKL

How the values were obtained:
[1] = Inverse temperature transition (Tt) by UV/vis absorbance at 350 nm; format: physicochemical; conditions: 4 μM protein in 10 mM phosphate buffer, pH 8.0, heated 10 to 65° C.
Description: UV/Vis Spectroscopy. UV/vis spectroscopy was performed on a Cary 100 UV/vis spectrometer (Agilent) to determine the inverse temperature transition (Tt) of 4 μM protein in 10 mM phosphate buffer, pH 8.0. The absorbance at 350 nm was measured as each protein sample was heated from 10 to 65° C., at a heating rate of 0.5° C./min.
Temperature-Dependent Supramolecular Assembly. The effect of temperature on the supramolecular assembly of the proteins was examined via absorption at 350 nm. The inverse temperature transition (Tt) was determined via temperature-dependent absorption (FIG. 3, insets). The Tt values for all fluorinated block polymers were different, affirming the significance of block orientation and number. […] In comparison to the wt proteins, fluorination appeared to depress the Tt of CE protein from 36 to 28° C.

[2] = Microrheology of protein solutions (bead tracking, G′/G″); format: physicochemical
Description: Microrheology. To assess the mechanical properties of all proteins, microrheology was performed using an inverted Leica DM-138 IRB microscope with a 20× objective lens at 22 and 42° C., maintained by a Lincum temperature-controlled cell. […] A total of 2 μL of 2 wt % fluorescent-amidated polystyrene beads (1.0 μm) was added to 10 μL of protein solution. Deionized water, 2 wt % beads, was measured as a control. Brownian motion of the beads was observed by Peltier-cooled video camera (QiCam) and digitally recorded. Mean square displacement (MSD) measurements of the beads were determined by IDL software (Research Systems, Inc.). Using the comprehensive Stokes-Einstein equation, the elastic modulus (G′) and viscous modulus (G″) were determined as a function of angular frequency (ω).
Mechanical Properties. Bulk rheological properties of the protein polymers were evaluated by microrheology (FIG. 4).
Upon fluorination, more depressed concentration-dependent percolation points for the protein polymers were observed. […] Two types of modifications to the rheological behavior are observed from EC and CE sets of constructs.

Row | Molecule | inverse temperature transition (Tt) [1] [°C] | rheological character ([2]; 1.25 mg mL^−1, 22° C.) | rheological character ([2]; 2.5 mg mL^−1, 22° C.) | rheological character ([2]; 2.5 mg mL^−1, 42° C.) | rheological character ([2]; 10 mg mL^−1) | rheological character ([2]; concentrations below 2.5 mg mL^−1) | rheological character ([2]; 1.25 mg mL^−1, 42° C.) | rheological character ([2]; up to 10 mg mL^−1)
1 | B1 | 25 | viscoelastic behavior | viscoelastic behavior | more elastic character | – | – | – | –
2 | B2 | – | predominantly viscous | – | more elastic character | elastic network | predominantly viscous | – | –
3 | B3 | 28 | viscous/viscoelastic | viscous/viscoelastic | elastic behavior; also recorded: dominant elastic modulus | – | – | – | –
4 | B4 | 32 | – | – | – | – | – | elastic network formation | –
5 | B5 | – | – | – | – | – | – | completely viscous | viscoelastic
6 | B6 | 36 | viscous/viscoelastic | viscous/viscoelastic | viscoelastic character | – | – | – | predominantly viscous

— US9359408B2, “Fluorinated protein-based polymeric carriers” (New York University, priority 2007, dated 2016)
